Measured values published in the supplement of paper PMC9112550, “Optimization of the antimicrobial peptide Bac7 by deep mutational scanning” (BMC Biology, 2022).

Test system: Escherichia coli TOP10
Assay: shrunken log2 fold change of peptide-encoding DNA abundance (4.5 h post-induction vs induction); higher = less antimicrobial activity (less host growth inhibition)
Details: time post-induction: 4.5 h; library: site-saturation at positions 5, 18, 19, 20
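Note: peptides expressed intracellularly from a pBAD plasmid library in pooled LB shake-flask culture, induced with 0.3% L-arabinose, DNA abundance read by NGS, three biological replicates, DESeq2 with apeglm shrinkage.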

| Sequence | shrunken log2 fold change |
| --- | --- |
| RRIRDRPPRLPRPRPRPAPWPRP | 0.226 |
| RRIRERPPRLPRPRPRPWDDPRP | -0.0464 |
| RRIRTRPPRLPRPRPRPGEGPRP | 0.177 |
| RRIRIRPPRLPRPRPRPAKMPRP | -0.101 |
| RRIRFRPPRLPRPRPRPMFKPRP | -0.581 |
| RRIRARPPRLPRPRPRPTELPRP | 0.595 |
| RRIRHRPPRLPRPRPRPTKTPRP | -0.194 |
| RRIRLRPPRLPRPRPRPFFYPRP | -0.343 |
| RRIRFRPPRLPRPRPRPAEEPRP | 0.105 |
| RRIRSRPPRLPRPRPRPECRPRP | 0.266 |
| RRIRKRPPRLPRPRPRPEDTPRP | 0.103 |
| RRIRVRPPRLPRPRPRPFPPPRP | -0.0462 |
| RRIRFRPPRLPRPRPRPSKGPRP | -0.115 |
| RRIRERPPRLPRPRPRPSNHPRP | -0.91 |
| RRIRARPPRLPRPRPRPNREPRP | 0.226 |
| RRIRNRPPRLPRPRPRPLWVPRP | -0.0871 |
| RRIRCRPPRLPRPRPRPTFQPRP | -0.0555 |
| RRIRTRPPRLPRPRPRPMDIPRP | -0.00738 |
| RRIRTRPPRLPRPRPRPLFWPRP | 0.134 |
| RRIRDRPPRLPRPRPRPDAWPRP | 0.816 |
| RRIRCRPPRLPRPRPRPFWQPRP | -0.0799 |
| RRIRTRPPRLPRPRPRPGSIPRP | -0.025 |
| RRIRNRPPRLPRPRPRPTDIPRP | -0.296 |

| Sequence | shrunken log2 fold change |
| --- | --- |
| RRIRARPPRLPRPRPRPCDRPRP | -0.00133 |
| RRIRSRPPRLPRPRPRPEKEPRP | 0.00748 |
| RRIRSRPPRLPRPRPRPDGAPRP | 0.289 |
| RRIRERPPRLPRPRPRPPVHPRP | -0.145 |
| RRIRRRPPRLPRPRPRPTETPRP | 0.137 |
| RRIRFRPPRLPRPRPRPEVVPRP | 0.723 |
| RRIRARPPRLPRPRPRPARRPRP | 0.388 |
| RRIRMRPPRLPRPRPRPECFPRP | 1.35 |
| RRIRIRPPRLPRPRPRPTKMPRP | -0.116 |
| RRIRTRPPRLPRPRPRPKEKPRP | 0.0414 |
| RRIRKRPPRLPRPRPRPLQGPRP | 0.154 |
| RRIRERPPRLPRPRPRPKESPRP | 0.0252 |
| RRIRWRPPRLPRPRPRPIDQPRP | 0.105 |
| RRIRHRPPRLPRPRPRPKNWPRP | 0.136 |
| RRIRERPPRLPRPRPRPFPHPRP | -0.15 |
| RRIRIRPPRLPRPRPRPEDPPRP | 0.0426 |
| RRIRQRPPRLPRPRPRPSFPPRP | -0.125 |
| RRIRGRPPRLPRPRPRPWTLPRP | 0.161 |
| RRIRMRPPRLPRPRPRPRDLPRP | 0.266 |
| RRIRERPPRLPRPRPRPMETPRP | 0.015 |
| RRIRERPPRLPRPRPRPELCPRP | 0.511 |
| RRIRTRPPRLPRPRPRPRGLPRP | 0.62 |
| RRIRNRPPRLPRPRPRPCFSPRP | -0.378 |

| Sequence | shrunken log2 fold change |
| --- | --- |
| RRIRSRPPRLPRPRPRPDQLPRP | -0.167 |
| RRIRWRPPRLPRPRPRPRMEPRP | 0.439 |
| RRIRFRPPRLPRPRPRPNTVPRP | -0.363 |
| RRIRPRPPRLPRPRPRPQVMPRP | -0.286 |
| RRIRARPPRLPRPRPRPKANPRP | 0.297 |
| RRIRKRPPRLPRPRPRPVRYPRP | 0.152 |
| RRIRWRPPRLPRPRPRPVSFPRP | 0.169 |
| RRIRWRPPRLPRPRPRPQQNPRP | -0.00819 |
| RRIRHRPPRLPRPRPRPCAFPRP | -0.176 |
| RRIRNRPPRLPRPRPRPRSIPRP | -0.288 |
| RRIRVRPPRLPRPRPRPGGDPRP | 0.0318 |
| RRIRWRPPRLPRPRPRPWPWPRP | -0.0737 |
| RRIRRRPPRLPRPRPRPYTSPRP | -0.313 |
| RRIRLRPPRLPRPRPRPPNKPRP | -0.123 |
| RRIRPRPPRLPRPRPRPNDQPRP | 1.93 |
| RRIRCRPPRLPRPRPRPNLNPRP | -0.575 |
| RRIRCRPPRLPRPRPRPQHKPRP | -0.543 |
| RRIRDRPPRLPRPRPRPMMWPRP | 0.156 |
| RRIRCRPPRLPRPRPRPTSAPRP | 0.18 |
| RRIRCRPPRLPRPRPRPHEVPRP | 0.104 |
| RRIRRRPPRLPRPRPRPCMKPRP | -0.0288 |
| RRIRIRPPRLPRPRPRPWFTPRP | -0.563 |
| RRIRVRPPRLPRPRPRPAVEPRP | 0.565 |

| Sequence | shrunken log2 fold change |
| --- | --- |
| RRIRCRPPRLPRPRPRPDCSPRP | 0.072 |
| RRIRQRPPRLPRPRPRPAEDPRP | 0.0312 |
| RRIRVRPPRLPRPRPRPIGYPRP | 0.117 |
| RRIRNRPPRLPRPRPRPLFSPRP | -0.753 |
| RRIRARPPRLPRPRPRPFKAPRP | 0.0354 |
| RRIRSRPPRLPRPRPRPPMAPRP | 0.169 |
| RRIRERPPRLPRPRPRPCMCPRP | -1.03 |
| RRIRERPPRLPRPRPRPYQGPRP | -0.199 |
| RRIRNRPPRLPRPRPRPNKMPRP | -0.0283 |
| RRIRGRPPRLPRPRPRPKAYPRP | 0.12 |
| RRIRHRPPRLPRPRPRPPMNPRP | -0.543 |
| RRIRERPPRLPRPRPRPMSVPRP | -0.158 |
| RRIRPRPPRLPRPRPRPMKMPRP | -0.148 |
| RRIRWRPPRLPRPRPRPHRPPRP | -0.135 |
| RRIRRRPPRLPRPRPRPENTPRP | -0.0822 |
| RRIRLRPPRLPRPRPRPVLCPRP | 0.168 |
| RRIRERPPRLPRPRPRPPCWPRP | 0.0636 |
| RRIRKRPPRLPRPRPRPLDLPRP | -0.203 |
| RRIRHRPPRLPRPRPRPRYTPRP | -0.123 |
| RRIRRRPPRLPRPRPRPTNGPRP | -0.168 |
| RRIRTRPPRLPRPRPRPFHEPRP | -0.126 |
| RRIRTRPPRLPRPRPRPKVYPRP | 0.0324 |
